Consider three molecules from paper PMC5594493, “Antiproliferative factor (APF) binds specifically to sites within the cytoskeleton-associated protein 4 (CKAP4) extracellular domain” (BMC Biochemistry, 2017).

For one experiment, the target named is T1, CKAP4_127–360 (Homo sapiens, UniProt Q07065).
T1 construct: amino acids 106–602, 127–360, 361–524, and 525–602 regions were generated by PCR and subcloned into the pET-15b bacterial expression vector; His-tag; made in house; host or cells: E. coli BL21(DE3)pLysS
T1 sequence (Q07065 127-360): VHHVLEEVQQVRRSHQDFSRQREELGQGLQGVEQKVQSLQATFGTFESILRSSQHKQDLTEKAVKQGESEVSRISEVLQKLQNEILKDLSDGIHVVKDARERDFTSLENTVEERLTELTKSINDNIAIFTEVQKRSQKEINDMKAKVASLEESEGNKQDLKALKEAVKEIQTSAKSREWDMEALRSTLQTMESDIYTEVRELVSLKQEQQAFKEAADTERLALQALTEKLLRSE
The experiment is described as follows: SPR binding kinetics, CKAP4_127–360 immobilized on CM5. The conditions noted are these: CM5 amine-coupling. On the procedure:
(§1) All SPR experiments were performed on a Biacore X-100 instrument (GE Healthcare) with the chip surface at 25 °C using PBS containing 0.01% Tween-20 as running buffer. CKAP4 recombinant proteins were immobilized individually either by Ni^2+/nitrilotriacetic acid (NTA) chelation on Sensor Chip NTA or by amine-coupling on Sensor Chip CM5, on the Fc2 channel. For amine-coupling, the sensor surface on both flow cells was activated for 7 min with a 1:1 mixture of 0.1 M EDC (1-ethyl-3-(3-dimethylaminopropyl) carbodiimide hydrochloride) and 0.1 M NHS (N-hydroxysuccinimide) at a flow rate of 5 μl/min. Immobilization of CKAP4 proteins (on Fc2) was performed in 10 mM sodium acetate buffer, at either pH 4.5, 5.0, or 5.5 based on preliminary pH scouting runs, for optimal binding. […] The data were analyzed using Biacore Evaluation software V2.0. […]
(§2) To assess the as-APF binding activity of the purified CKAP4 deletion mutants, each protein was separately immobilized on a CM5 sensor chip through amine coupling, and SPR responses against APF control peptide and various as-APF concentrations were observed. We used this reverse approach to assess as-APF binding kinetics because the concentration of as-APF synthetic peptide could be calculated more accurately than the purified CKAP4 deletion mutants, which vary in amino acid composition. […]
In general terms: Surface plasmon resonance follows binding to a sensor surface in real time, without labels.

A further experiment has as its target T2, CKAP4_361–524 (Homo sapiens, UniProt Q07065).
T2 construct: amino acids 106–602, 127–360, 361–524, and 525–602 regions were generated by PCR and subcloned into the pET-15b bacterial expression vector; His-tag; made in house; host or cells: E. coli BL21(DE3)pLysS
T2 sequence (Q07065 361-524): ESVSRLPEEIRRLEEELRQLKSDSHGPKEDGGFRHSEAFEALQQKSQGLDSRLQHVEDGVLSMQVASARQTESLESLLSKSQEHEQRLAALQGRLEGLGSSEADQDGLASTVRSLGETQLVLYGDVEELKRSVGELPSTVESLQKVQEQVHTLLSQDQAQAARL
The experiment is described as follows: SPR binding kinetics, CKAP4_361–524 immobilized on CM5. The conditions noted are these: CM5 amine-coupling. On the procedure: as §1, §2

The next experiment concerns the target T3, CKAP4_525–602 (Homo sapiens, UniProt Q07065).
T3 construct: amino acids 106–602, 127–360, 361–524, and 525–602 regions were generated by PCR and subcloned into the pET-15b bacterial expression vector; His-tag; made in house; host or cells: E. coli BL21(DE3)pLysS
T3 sequence (Q07065 525-602): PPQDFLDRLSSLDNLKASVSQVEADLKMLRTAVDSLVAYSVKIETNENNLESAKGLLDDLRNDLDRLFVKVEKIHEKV
The experiment is described as follows: SPR binding kinetics, CKAP4_525–602 immobilized on CM5. The conditions noted are these: CM5 amine-coupling. How it is done:
as §1, §2

The subject of a further experiment is CKAP4. The experiment is described as follows: SPR binding to CKAP4 recombinant proteins (overall statements). The conditions noted are these: comparison of as-APF, APF and control peptide. On the procedure: as §1, with “binding. Unreacted NHS groups were quenched with a 7 min injection of 1 M ethanolamine pH 8.5. The Fc1 channel was treated similarly but without CKAP4 and served as a reference. Upon stabilization of the baseline signal, multi-cycle kinetics assays were performed with injections of as-APF as analyte at various concentrations (2.5–40 μM) in running buffer at 30 μl/min for 2 min, immediately followed by a 3 min dissociation phase.” for “binding.”

The next experiment has as its target CKAP4_(361–524) (UniProt Q07065). The experiment is described as follows: SPR; CKAP4 deletion mutant amine-coupled on Fc2 of a CM5 chip (352, 585, 1914 RU), Fc1 blank reference; multi-cycle kinetics with as-APF 2.5–40 μM, 30 μl/min, 2 min association, 3 min dissociation; 25 °C, PBS with 0.01% Tween-20; heterogeneous ligand, 1:1 or two-state fit.
For a further experiment, the target named is CKAP4_(525–602) (UniProt Q07065). The experiment is described as above.
Experiment [1] addresses T4, CKAP4_(127–360) (UniProt Q07065 127-360).
T4 chain: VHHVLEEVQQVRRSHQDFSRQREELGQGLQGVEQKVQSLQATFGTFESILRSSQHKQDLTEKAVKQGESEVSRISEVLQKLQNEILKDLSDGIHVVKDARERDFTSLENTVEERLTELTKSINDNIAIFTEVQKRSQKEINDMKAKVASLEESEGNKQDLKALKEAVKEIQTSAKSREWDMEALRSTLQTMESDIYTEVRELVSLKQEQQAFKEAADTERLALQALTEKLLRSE
The experiment is described as above.

Experiment [2] deals with T4, CKAP4_(127–360). The experiment is described as follows: SPR; heterogeneous ligand fit, KD1.

In general, Kd refers to a measure of binding affinity in units of concentration. A higher Kd goes with weaker binding. The stoichiometry N is the number of molecules, sites or subunits per partner or assembly.

As for TVPAAVVVA [APF control peptide], the specific binding result at CKAP4_127–360, on CKAP4_361–524 and at CKAP4_525–602 was “no specific binding was detected” each time. Moreover, the “binding to CKAP4 (in words)” value in the experiment with CKAP4 was “no binding response”.
In the case of “as-APF (asialo APF, Galβ1−3GalNAcα-O-…) (peptide)”, in the experiment with CKAP4_(361–524), the Kd was determined as 2.3 µM and the stoichiometry N was found to be 1. In the experiment with CKAP4_(525–602), this molecule came in with a Kd of 197 µM and a stoichiometry N of 1.5. Moreover, in the experiment with CKAP4_(127–360) [1], the KD1 (heterogeneous ligand fit) is 4.61 µM, the KD2 (heterogeneous ligand fit) was 0.66 nM and the stoichiometry N is 7.1.
For the molecule TVPAAVVVA (Galβ1−3GalNAcα-O- disaccharide on the N-terminal threonine) [as-APF (asialo APF, Galβ1−3GalNAcα-O-TVPAAVVVA)], binding with CKAP4_(127–360) [2] was characterised by a dissociation constant (Kd) of 4.6 µM.
